This note sets out measurements from patent publication US20250250357A1 (NANJING ZAIMING PHARMACEUTICAL, published 2025).

The labels stand for the following.
T1: human MSLN-R1-his protein (human, UniProt Q13421 296-390)
T1 construct: also called hMSLN-R1-his; human MSLN-R1 protein; not shown: His tag
T1 chain: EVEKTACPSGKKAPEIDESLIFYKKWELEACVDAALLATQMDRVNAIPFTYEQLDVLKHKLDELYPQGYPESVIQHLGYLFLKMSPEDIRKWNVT

B1: S009-F1.62.9 human-murine chimeric antibody (antibody, human IgG1, kappa, V domains shown)
VH: EVQLQQSGADLVKPGASVKLSCTVFGLNFKDTFMHWVRQRPEQGLEWIGRIDPANDNSIYGPKFQDKATITADTSSNTAYLHLSSLTSEDTAVYYCLYFDNWGHGTTLTVSS
VL: DIVMTQAASSEPVTPGESVSISCRSDKSLLHSNGHNYLYWFLQRPGQSPHLLIYRMSNLASGVPDRFSGSGSGTAFTLRISRVEAEDVGVYYCMQHLEYPLTFGAGTKLELKR
notes: Chimeric IgG1/kappa
B2: S009-F3.51.8 (antibody, human IgG1, kappa, V domains shown)
VH: QVQLQQSGAELVRPGASVTLSCKASGYTFTDYEMHWVKQTPVHGLEWIGGFDPETGGTAHNQKFKGKAILTADKSSSTAYMELRSLTSEDSAVYYCSNYGSIWGDCWGQGTSVTVSS
VL: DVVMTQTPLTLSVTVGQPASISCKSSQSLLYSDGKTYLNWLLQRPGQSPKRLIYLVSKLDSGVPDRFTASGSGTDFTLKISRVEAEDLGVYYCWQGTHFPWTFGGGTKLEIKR
notes: human-murine chimeric antibody, human IgG1/kappa constant regions
B3: S009-F3.74.20 (antibody, human IgG1, kappa, V domains shown)
VH: RVQLQQSGAELVRPGASVTLSCKASGYTFTDSEMHWVKQTPVHGLEWIGAIDPEIDGTAYNQNFRDKAILTADKSSSTAYMELRSLTSEDSAVYYCTTYFGSGYGYFDVWGTGTTVTVSS
VL: DVVMTQTPLSLSVSLGDQASISCRSSQSLVYSNGNTYLHWFLQKPGQSPKLLIYKVSNRFSGVPDRFSGSGSGTDFTLKINRVEAEDLGVYFCSQSTHIPFTFGAGTKLELKR
notes: as for B2
B4: S009-F3.80.22 (antibody, human IgG1, kappa, V domains shown)
VH: QVQLQQSGAELVRPGASVTLSCKASGYTFTDYEIHWVKQTPVHGLEWIGAFDPEIGGSAYNQKFKDRATLTADKSSSTAYMELHSLTAEDSAVYYCTDYYGSSSGYFDVWGTGTTVTVSS
VL: B3 VL with S12P, V30E, Y31H, S32N, Q43H, N81S, I99V, A105S, L111I
notes: as for B2
B5: S009-F4-127.10 (antibody, human IgG1, kappa, V domains shown)
VH: EVQLQQSGPVLVKPGASVKMSCKASGYTFTDYYMNWVKQSHGKSPEWIGVINPYNDVISYNQKFKGKATLTVDKSSSTAYMELNSLTSEDSAVYYCANYGSSYYAMDYWGQGTSVTVSS
VL: B3 VL with Y31H, H39Q, F41S, K50N, N81S, S96T, I99V, A105G, L111I, K112R
notes: as for B2
B6: S009-F3.23.1 (antibody, human IgG1, kappa, V domains shown)
VH: QVQLQQSGADLVRPGASVTLSCKASGYTFTDYEMHWVKQTPVHGLEWIGAIDPETGDTVYNQNFKGKAILTADKSSSTAYMELRSLTSEDSAVYYCTRYGYDWGWGQGTTLTVSS
VL: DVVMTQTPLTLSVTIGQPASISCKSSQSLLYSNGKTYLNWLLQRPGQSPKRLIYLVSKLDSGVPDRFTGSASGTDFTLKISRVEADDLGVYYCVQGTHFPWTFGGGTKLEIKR
notes: as for B2
B7: S009-F3.45.21 (antibody, human IgG1, kappa, V domains shown)
VH: DVQLQESGPGLVKPSQSLSLTCSVTGDSITSGYYWNWIRQFPGNKLEWMGFIRFDGTNNYNPSLKNRISITRDTSKNQFFLKLNSVTTEDTATYYCAREGSYAPAWFAYWGQGTLVTVSA
VL: QIVLTQSPAIMSASPGEKVTMTCSASSSLSYMYWYQQKPGSSPRLLIYDTSNLASGVPVRFSGSGSGTSYSLTISRMEAEDAATYYCQQWSSYPPTFGGGTKLEIKR
notes: as for B2

Changes are numbered by the printed parent chain.

One assay addresses T1, human MSLN-R1-his protein. Put plainly: ELISA, coated antigen; antibody 10 nM. A general note: ELISA stands for enzyme-linked immunosorbent assay.
Experimental: (§1) The plate was sealed with a plastic film and incubated at 4° C. overnight. The next day, the plate was washed twice with PBST, and a blocking buffer [PBS+2% (w/w) BSA] was added for blocking at room temperature for 2 h. The blocking buffer was discarded, and a chimeric antibody or negative control antibody serially diluted from 100 nM was added at 50 μL/well. After incubation at 37° C. for 2 h, the plate was washed 3 times with PBST. […] After incubation at 37° C. for 2 h, the plate was washed 5 times with PBST. A TMB substrate was added at 50 μL/well for incubation at room temperature for 5-10 min, and then a stop solution (1.0 N HCl) was added at 50 μL/well.
B1 gave an OD450 of 0.04.

For another assay, the target named is T1, human MSLN-R1-his protein. Put plainly: ELISA, coated antigen; antibody 0.1 nM.
Experimental: as §1
As for B1, the OD450 came to 0.04.

The target of a further assay is T2, human MSLN-FL-his protein (human, UniProt Q13421 296-580).
T2 construct: made in HEK293E cells, purified on nickel column; also called hMSLN-FL-his; human MSLN full-length protein; not shown: His tag
Put plainly: competitive ELISA; coated 2ug/ml F3.80.22.
T2 sequence (Q13421 other isoform, or with tags, fused parts or gaps): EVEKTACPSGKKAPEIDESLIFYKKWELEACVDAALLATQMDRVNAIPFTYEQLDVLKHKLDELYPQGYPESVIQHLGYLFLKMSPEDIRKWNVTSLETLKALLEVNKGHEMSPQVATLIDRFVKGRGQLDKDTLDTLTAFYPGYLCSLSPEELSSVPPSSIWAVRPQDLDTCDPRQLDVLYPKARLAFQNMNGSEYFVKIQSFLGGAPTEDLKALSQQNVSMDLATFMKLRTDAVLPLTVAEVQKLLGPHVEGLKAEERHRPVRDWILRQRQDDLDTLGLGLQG
Regarding B2, the competition rate was -17%.
The same measure, in the same setting: under B3 stands -15%; under B4, 63%.
For the molecule B5, the competition rate was -5%.
Turning to B6, the competition rate was -36%.
The same measure, in the same setting: under B7 stands -26%.

A further assay addresses T1, human MSLN-R1-his protein. Put plainly: ELISA, coated antigen; no antibody (blank, column 'none').
Experimental: as §1
B1: the OD450 was found to be 0.05.

The target of the next assay is T3, human MSLN-FL-his protein (human, UniProt Q13421 296-580).
T3 construct: also called hMSLN-FL-his; human MSLN full-length protein; not shown: His tag
Put plainly: ELISA, coated antigen; antibody 1 nM.
Target sequence in this assay (Q13421 other isoform, or with tags, fused parts or gaps): as above
On to B1, for which the OD450 came out at 2.35.

A further assay addresses T2, human MSLN-FL-his protein. Put plainly: competitive ELISA; coated 2ug/ml F3.23.1.
Experimental: (§2) In order to identify antigen-binding sites of antibodies, MSLN chimeric antibodies were grouped using competitive ELISA.
(§3) The chimeric antibodies were diluted to 2 μg/mL with PBS and allowed to coat 96-well high-adsorption ELISA plates at 50 μL/well. After the plates were coated at 4° C. overnight, 250 μL of a blocking buffer (PBS containing 2% (w/w) BSA) was added for two hours of blocking at room temperature. 40 μg/mL of the antibodies to be tested were added, and then the human MSLN-FL-His protein with an EC₈₀ concentration corresponding to each of the antibodies to be tested was added for incubation for 2 h. The plates were washed 5 times with PBS, an HRP-labeled anti-His secondary antibody (purchased from Genescript, Cat. No. A00612) was then added for incubation for 1 h, and the plates were washed 5 times again. A TMB substrate was added at 50 μL/well, and after 10 minutes of incubation at room temperature, a stop solution (1.0 M HCl) was added at 50 μL/well. OD₄₅₀ nm values were read using an ELISA plate reader (Insight, purchased from PerkinElmer), and the competition rate between the antibodies was calculated according to the OD₄₅₀ nm values using a formula.
With B2, the competition rate amounted to 101%.
B3: the competition rate is 100%.
Same read-out and setting: to B4 belongs -109%; to B5, 88%; to B6, 95%.
The same measure, in the same setting: under B7 stands 99%.

In a further assay the target is T2, human MSLN-FL-his protein. Put plainly: competitive ELISA; coated 2ug/ml F3.51.8.
Experimental: as §2, §3
Take B2: the competition rate turned out to be 102%.
Still for that read-out and setting: to B3 belongs 96%; to B4, 43%; to B5, 87%.
Same read-out and setting: under B6 stands 94%; under B7, 96%.

A further assay concerns the target T3, human MSLN-FL-his protein. Put plainly: ELISA, coated antigen; antibody 100 nM.
Target sequence in this assay (Q13421 other isoform, or with tags, fused parts or gaps): as above
Experimental: as §1
As to B1, the OD450 is 2.61.

In a further assay the target is T3, human MSLN-FL-his protein. Put plainly: ELISA, coated antigen; antibody 0.01 nM.
Target sequence in this assay (Q13421 other isoform, or with tags, fused parts or gaps): as above
Experimental: as §1
For the molecule B1, the OD450 worked out at 0.48.

Another assay addresses T3, human MSLN-FL-his protein. Put plainly: ELISA, coated antigen; antibody 0.001 nM.
Target sequence in this assay (Q13421 other isoform, or with tags, fused parts or gaps): as above
Experimental: as §1
Molecule B1 gave an OD450 of 0.11.

The target in another assay is T1, human MSLN-R1-his protein. Put plainly: ELISA, coated antigen; antibody 0.001 nM.
Experimental: as §1
As to B1, the OD450 was found to be 0.04.

The target in a further assay is T2, human MSLN-FL-his protein. Put plainly: competitive ELISA; coated 2ug/ml F3.45.21.
Experimental: as §2, §3
Take B2: the competition rate amounted to 98%.
The same measure, in the same setting: under B3 stands 94%; under B4, -67%; under B5, 84%.
On to B6, for which the competition rate amounted to 89%.
In the case of B7, the competition rate stood at 92%.

The target of a further assay is T3, human MSLN-FL-his protein. Put plainly: ELISA, coated antigen; antibody 0.1 nM.
Target sequence in this assay (Q13421 other isoform, or with tags, fused parts or gaps): as above
Experimental: as §1
The molecule B1 gave an OD450 of 1.79.

A further assay concerns the target T3, human MSLN-FL-his protein. Put plainly: ELISA, coated antigen; no antibody (blank, column 'none').
Experimental: as §1
Turning to B1, the OD450 turned out to be 0.05.

A further assay deals with T3, human MSLN-FL-his protein. Put plainly: ELISA, coated antigen; antibody 0.0001 nM.
Experimental: as §1
B1 gave an OD450 of 0.06.

The target in the next assay is T2, human MSLN-FL-his protein. Put plainly: competitive ELISA; coated 2ug/ml F4-127.10.
Experimental: as §2, §3
B2: the competition rate amounted to 78%.
On to B3, for which the competition rate amounted to 33%.
For the molecule B4, the competition rate is -22%.
The same measure, in the same setting: to B5 belongs 16%; to B6, 31%.
Same read-out and setting: to B7 belongs 37%.

For another assay, the target named is T1, human MSLN-R1-his protein. Put plainly: ELISA, coated antigen; antibody 1 nM.
Experimental: as §1
As to B1, the OD450 came out at 0.04.

Another assay has as its target T2, human MSLN-FL-his protein. Put plainly: SPR (Biacore), antibody captured on Protein A chip.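 Further: measured at 25 °C, analyte injected 240 s in five twofold dilutions from 200 nM, dissociation up to 600 s, double-referenced, fitted with Langmuir 1:1 model.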
Experimental: The flow cell was set at 25° C. The sample block was set at 16° C. Both were pretreated with the running buffer. In each cycle, first, the antibody to be tested was captured using the Protein A chip, and then a single concentration of human MSLN-FL-his protein was injected. […] The association was determined by injecting different concentrations of human MSLN-FL-his in solution for 240 s on end, wherein the flow rate was 30 μL/min, and the protein was diluted in a 1:1 dilution ratio from 200 nM (see detailed results for actual concentrations tested) to obtain 5 concentrations in total. The dissociation phase was monitored for up to 600 s and triggered by switching from the sample solution to the running buffer. The surface was regenerated by washing with 10 mM glycine solution (pH 1.5) at a flow rate of 30 μL/min for 30 s. The difference in bulk refractive index was corrected by subtracting the responses obtained from the goat anti-human Fc surface. Blank injections were also subtracted (=double reference). To calculate the apparent KD and other kinetic parameters, the Langmuir 1:1 model was used.
Molecule B2 displayed a Kd of 142 nM, an off-rate constant (koff) of 0.00035 s⁻¹ and a kon of 2470 M⁻¹ s⁻¹.
As to B3, the equilibrium dissociation constant (Kd) came to 4.92 nM, the koff worked out at 5.04e-05 s⁻¹ and the kon amounted to 10300 M⁻¹ s⁻¹.
On to B4, for which the Kd came to 151 nM, the off-rate constant (koff) came to 0.000332 s⁻¹ and the association rate constant (kon) is 2200 M⁻¹ s⁻¹.
The corresponding values for B5 are 171 nM, 0.000433 s⁻¹ and 2530 M⁻¹ s⁻¹.
B6: binding was characterised by a dissociation constant (Kd) of 689 nM and the koff worked out at 0.000703 s⁻¹.
With B7, the Kd was found to be 1.5 nM, the dissociation rate constant (koff) came to 0.00083 s⁻¹ and the on-rate (kon) amounted to 552000 M⁻¹ s⁻¹.

The next assay concerns the target T1, human MSLN-R1-his protein. Put plainly: ELISA, coated antigen; antibody 0.0001 nM.
Experimental: as §1
In turn, B1 showed an OD450 of 0.04.

The next assay concerns the target T2, human MSLN-FL-his protein. Put plainly: competitive ELISA; coated 2ug/ml Tab142 (R1).
Experimental: as §2, §3
On to B2, for which the competition rate is -34%.
As for B3, the competition rate was -28%.
On the same count and under the same terms, to B4 belongs 81%; to B5, -27%; to B6, -25%.
As for B7, the competition rate is -38%.

In the next assay the target is T2, human MSLN-FL-his protein. Put plainly: competitive ELISA; coated 2ug/ml F3.74.20.
Experimental: as §2, §3
Regarding B2, the competition rate is 101%.
Same read-out and setting: under B3 stands 98%; under B4, -12%; under B5, 91%.
As for B6, the competition rate was 93%.
In the case of B7, the competition rate was determined as 96%.

The next assay has as its target T1, human MSLN-R1-his protein. Put plainly: ELISA, coated antigen; antibody 100 nM.
Experimental: as §1
Take B1: the OD450 is 0.06.

Another assay concerns the target T1, human MSLN-R1-his protein. Put plainly: ELISA, coated antigen; antibody 0.01 nM.
Experimental: as §1
Regarding B1, the OD450 came to 0.05.

The target in the next assay is T2, human MSLN-FL-his protein. Put plainly: competitive ELISA; coated 2ug/ml Tab108 (R3).
Experimental: as §2, §3
B2: the competition rate worked out at 46%.
On the same count and under the same terms, under B3 stands 34%; under B4, 35%.
On the same count and under the same terms, under B5 stands -37%; under B6, 35%; under B7, 32%.

Another assay deals with T3, human MSLN-FL-his protein. Put plainly: ELISA, coated antigen; antibody 10 nM.
Experimental: as §1
Molecule B1 showed an OD450 of 2.59.

In general, Kd refers to the concentration at which binding is half-saturated. Low readings indicate tighter binding, high ones weaker binding. One may read the koff as the rate constant with which the complex falls apart. A word on the kon: it is a measure of how fast the partners come together.
